Measurements reported in publication PMC4091690, “A Broadly Conserved G-Protein-Coupled Receptor Kinase Phosphorylation Mechanism Controls Drosophila Smoothened Activity” (PLoS Genetics, 2014).

B1: Smo^core (Drosophila Smoothened amino acids 1-663), C-terminally tagged with GFP10 S634 [Drosophila] / Costal-2 (Cos2), C-terminally tagged with Renilla luciferase II … (parent)
chain 1: MEIPIQVAVRIFPHRELKDLLRSFGPTEPKKDAQAVDEGADSKDSEAQVPAAEKDNPSISETDPNGNAEQDSAADSKTIPDANGNDSGQKDYPDSAYCVQAIPISASALGLPSALPGGDPMDSIAAGLIQVGPHTVPVTHALPSSSSQEQVYHQTVFPLITLFLEGFDASVVTYGQRGQGKSYTLYGNVQDPTLTDSTEGVVQLCVRDIFSHISLHPERTYAINVGFVEICGGDVCDLLGMGNIHCTNVDAVFHWLQVGLSARQSLPAHTLFTLTLEQQWVSKEGLLQHRLSTASFSDLCGTERCGDQPPGRPLDAGLCMLEQVISTLTDPGLMYGVNGNIPYGQTTLTTLLKDSFGGRAQTLVILCVSPLEEHLPETLGNLQFAFKVQCVRNFVIMNTYSDDNTMIVQPAEPVPESNSSAGPLSQAGPGDNFGLQFAASQWSKLVTNAEGLFSKLIDSKLITEVEKEQIEEWLFLKQECEECLSSTEAMRQQKQLVPILEAEEPEDVNSEAANSESPNSDNENDTDNESHRPDLDDKIESLMEEFRDKTDALILEKHAEYLSKHPKAVMQSQDREIEAQPPEENGDDRKVSIGSRRRSVQPGASLSTAELAMLNRVASQQPPPPIDPESVVDPLESSSGEGIRQAALAAAAATAPIEQLQKKLRKLVAEIEGKQRQLREIEETIQVKQNIIAELVKNSDTRSHAKQRFHKKRAKLEAECDKAKKQLGKALVQGRDQSEIERWTTIIGHLERRLEDLSSMKHIAGESGQKVKKLQQSVGESRKQADDLQKKLRKECKLRCQMEAELAKLRESRETGKELVKAQGSPEQQGRQLKAVQARITHLNHILREKSDNLEEQPGPEQQETLRHEIRNLRGTRDLLLEERCHLDRKLKRDKVLTQKEERKLLECDEAIEAIDAAIEFKNEMITGHRSIDTSDRIQREKGEQMLMARLNRLSTEEMRTLLYKYFTKVIDLRDSSRKLELQLVQLERERDAWEWKERVLSNAVRQARLEGERNAVLLQRQHEMKLTLMLRHMAEETSASSASYGERALAPACVAPPVQASSDFDYDHFYKGGGNPSKALIKAPKPMPTGSALDKYKDKEQRSGRNIFAKFHVLTRYASAAAAGSSGSTAEESTALIESTTTATATTTSTTTTGAVGKVKDKALVSFRPEQLKRLMPAPTATKVTRQKNKIIIQDASRRN
chain 2: SSAKFGSTTPASAQQSDVELEPINGTLNYRLYAKKGRDDKPWFDGLDSRHIQCVRRARCYPTSNATNTCFGSKLPYELSSLDLTDFHTEKELNDKLNDYYALKHVPKCWAAIQPFLCAVFKPKCEKINGEDMVYLPSYEMCRITMEPCRILYNTTFFPKFLRCNETLFPTKCTNGARGMKFNGTGQCLSPLVPTDTSASYYPGIEGCGVRCKDPLYTDDEHRQIHKLIGWAGSICLLSNLFVVSTFFIDWKNANKYPAVIVFYINLCFLIACVGWLLQFTSGSREDIVCRKDGTLRHSEPTAGENLSCIVIFVLVYYFLTAGMVWFVFLTYAWHWRAMGHVQDRIDKKGSYFHLVAWSLPLVLTITTMAFSEVDGNSIVGICFVGYINHSMRAGLLLGPLCGVILIGGYFITRGMVMLFGLKHFANDIKSTSASNKIHLIIMRMGVCALLTLVFILVAIACHVTEFRHADEWAQSFRQFIICKISSVFEEKSSCRIENRPSVGVLQLHLLCLFSSGIVMSTWCWTPSSIETWKRYIRKKCGKEVVEEVKMPKHKVIAQTWAKRKDFEDKGRLSITLYNTHTDPVGLNFDVNDLNSSETNDISSTWAAYLPQCVKRRMALTGAATGNSSSHGP

Variants of: B1
Experiment: BRET
Settings: with Costal-2 (Cos2), S2 cells treated with smo 3′UTR dsRNA to deplete endogenous Smo, parent: 100, read off a plot

Row | response | Variant
1 | 30 | chain 2 S573A T575A T579A T581A S595A S596A T598A S602A S603A T604A T620A T624A S627A S628A S629A
